Experimental data reported in patent publication US9885713B2, “Diagnosis and treatment of mycobacteria infections” (priority 2013, dated 2018).
“Also recorded” adds a separate entry of the source.

Experiments:
E. coli = test: Specificity control on protein covered gold surfaces (non-host bacteria); assay type: binding, Escherichia coli; settings: E. coli K12; protein covered gold surface
Excerpt: (§1) The concentrations of the two RBPs of Gp6, Gp-10 and Gp31 were optimized for immobilization. […] The specificity of recognition by the RBPs was confirmed by exposing similar surfaces to E. coli EC12 and Campylobacter jejuni 11168H strains of non-host bacteria.
(§2) Proteins were immobilized onto cysteamine covered gold surfaces that were activated with glutaraldehyde according to the previously described protocol where RBP samples were used instead of whole phage particles. Briefly, the gold substrates were fabricated using piranha cleaned silicon substrates by sputtering a 25 nm thick gold layer. The gold substrates were sonicated in acetone, isopropanol, ethanol and MilliQ (Millipore) water for 5 min each prior to their use (Branson Ultrasonics 1510, 40 kHz frequency). The gold substrates were incubated overnight at 40° C. in a 50 mM solution of cysteamine hydrochloride (Sigma-Aldrich). The cysteamine self assembled monolayer (SAM) substrates were modified by 2% glutaraldehyde (Sigma-Aldrich) for 1 hr at room temperature and washed twice in PBS. […] For fluorescence microscopy, the bacterial cells were stained with 50 μM resazurin (Sigma-Aldrich) for 20 min before exposure to the substrates covered with the immobilized proteins.
(§3) Bacterial cell binding to the gold surface covered with the immobilized protein was assessed as described previously. […]

[1] = biological target: T1, peptidoglycan from Bacillus subtilis (Mycobacterium phage L5, UniProt Q05285, I224V/T32I); test: Peptidoglycan binding assay
T1 construct: pET-30a(+) vector-encoded N-terminal leader (additional residues up to the EcoRI site) (N); made in house; host or cells: E. coli BL21(DE3)
T1 sequence (Q05285 other isoform, or with tags, fused parts or gaps T32I/I224V): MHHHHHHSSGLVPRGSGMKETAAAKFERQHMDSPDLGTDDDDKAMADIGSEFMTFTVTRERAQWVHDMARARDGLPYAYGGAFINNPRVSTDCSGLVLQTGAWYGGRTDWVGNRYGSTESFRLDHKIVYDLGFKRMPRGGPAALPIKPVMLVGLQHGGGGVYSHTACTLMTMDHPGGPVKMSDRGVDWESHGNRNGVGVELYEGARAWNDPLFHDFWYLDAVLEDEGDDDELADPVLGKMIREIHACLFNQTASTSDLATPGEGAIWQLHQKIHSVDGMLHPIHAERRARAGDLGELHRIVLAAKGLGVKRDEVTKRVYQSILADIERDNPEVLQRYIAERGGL
Method: Dehydrated peptidoglycan from Bacillus subtilis (Sigma-Aldrich) was suspended in water to obtain a 10 mg/ml stock that was stored at −20° C. This stock was diluted further in water to obtain a 1 mg/ml working stock solution that was used in the experiments and was prepared fresh each time. A 0.1 mg/ml sample of Gp10 in PBS was incubated with peptidoglycan at a final concentration of 0.1 mg/ml for 30 min at room temperature with occasional stirring. Then, the peptidoglycan was separated from the protein solution by centrifugation (15 min at 18 000 g at 4° C.), an aliquot of the supernatant was mixed with the SDS-sample buffer and analyzed by SDS-PAGE.

[2] = tested on: Campylobacter jejuni 11168H; test: Specificity control on protein covered gold surfaces (non-host bacteria); assay type: binding; settings: C. jejuni; protein covered gold surface
Excerpt: as §1, §2, §3

[3] = tested on: Mycobacterium avium subsp. paratuberculosis ATCC 19851; test: Cell binding assay: protein immobilized on gold surface, capture by SEM and fluorescence microscopy; settings: for capture/binding of MAP cells (in words): protein immobilized on gold surface, 20 μg/ml (Gp6 also 40 μg/ml)
Excerpt: (§4) In order to assess mycophage and mycophage RBPs for their use as probes of MAP infection, Gp-10 and Gp-6 were immobilized using an established protocol (Singh et. al. Biosens. Bioelect. 26 131 (2010) and used for the specific bacterial capture. Gold Surfaces were modified by cysteamine hydrochloride followed by activation using 2% gluteraldehyde. The recombinant proteins Gp-10, Gp-6 and Gp-31 were immobilized over the surfaces in order to capture the host bacteria Mycobacterium avium subsp. paratuberculosis ATCC 19851 and Mycobacterium smegmatis mc^2155. Bacterial capture was confirmed by fluorescence microscopy and Scanning Electron Microscopy (SEM). Nonspecific attachment was prevented by using bovine serum albumin (BSA) as the blocking layer. A negative control was run in parallel where a similar gold surface was treated with all reagents, but they were not exposed to the recombinant phage proteins.
(§5) Proteins were immobilized onto cysteamine covered gold surfaces that were activated with glutaraldehyde according to the previously described protocol where RBP samples were used instead of whole phage particles. Briefly, the gold substrates were fabricated using piranha cleaned silicon substrates by sputtering a 25 nm thick gold layer. The gold substrates were sonicated in acetone, isopropanol, ethanol and MilliQ (Millipore) water for 5 min each prior to their use (Branson Ultrasonics 1510, 40 kHz frequency). The gold substrates were incubated overnight at 40° C. in a 50 mM solution of cysteamine hydrochloride (Sigma-Aldrich). The cysteamine self assembled monolayer (SAM) substrates were modified by 2% glutaraldehyde (Sigma-Aldrich) for 1 hr at room temperature and washed twice in PBS. These modified substrates were incubated in a 20 μg/ml solution of Gp10 (or Gp6) in PBS overnight at […]. The negative control substrate was incubated in PBS only. To block nonspecific binding of bacteria, the substrates were incubated in 1 mg/ml of bovine serum albumin (Sigma-Aldrich) and were washed twice in PBS. The protein covered substrates were exposed to 10^9 cfu/ml of mycobacterial cells in PBS for 1 hr at room temperature. The immobilized surfaces were washed in 0.05 Tween 20 (Sigma-Aldrich) before analysis. For fluorescence microscopy, the bacterial cells were stained with 50 μM resazurin (Sigma-Aldrich) for 20 min before exposure to the substrates covered with the immobilized proteins.
(§6) Bacterial cell binding to the gold surface covered with the immobilized protein was assessed as described previously. Scanning electron microscopy (SEM) and fluorescent microscopy (FM) were used to estimate the number of bacterial cells bound to the surfaces. The samples were fixed with 2% glutaraldehyde for 2 hrs at room temperature followed by a gradient of ethanol from 50% to 100% before SEM. Finally the samples were dried by nitrogen gas. SEM imaging was performed using a Hitachi S-4800/LEO 1430 microscope. Cells were prestained using 50 μM of resazurin stain (Sigma-Aldrich) for the FM-based binding assay. An Olympus IX81 microscope equipped with a FITC filter and a Roper Scientific Cool-Snaps HQ CCD Camera were Used to Record the FM Images. ImageJ Software (USA NIH) was used to analyze the microscopy images. Average numbers of cells bound to the surface are indicated on the basis of the assessment of the cell number, fields of view, and using 8 gold covered chips per test.

[4] = tested on: Mycobacterium smegmatis mc^2155; test: as above; settings: for Capture efficiency of M. smegmatis cells: 20 μg/ml protein solution used for immobilization onto gold chip; for bacterial capture: gold surface, 20 μg/ml of RBP, Mycobacterium smegmatis mc^2155; for capture/binding of M. smegmatis cells (in words): protein immobilized on gold surface, 20 μg/ml
Excerpt: as §4, §5, §6

M. marinum cells = test: as above; parameters: species or system Mycobacterium marinum
Excerpt: (§7) Mycobacteria phage L5 (HER-386) was obtained from the Felix D'Herelle Reference Centre for Bacterial Viruses (Laval University, Quebec, Canada). Mycobacterium marinum ATCC number 927, M. smegmatis mc^2 155 and M. avium subsp. paratuberculosis ATCC 19851 were used in the binding studies along with Campylobacter jejuni NCTC 11168H, Salmonella enterica subsp. enterica sv. Typhimurium ATCC 19585 and E. coli K-12. E. coli DH5α (Invitrogen) and E. coli BL21(DE3) (Invitrogen) were used for cloning and recombinant protein expression procedures, respectively. All mycobacterial strains were grown in ambient atmosphere. Middlebrook 7H9 (BD Biosciences) broth supplemented with oleic acid-albumin-dextrose catalase (BD Biosciences) and mycobactin J (Allied Monitor Inc.) was used to propagate M. smegmatis at 37° C. for 48 hrs as well as MAP cells at 37° C. for 10 days. […]
(§8) Proteins were immobilized onto cysteamine covered gold surfaces that were activated with glutaraldehyde according to the previously described protocol where RBP samples were used instead of whole phage particles. […] For fluorescence microscopy, the bacterial cells were stained with 50 μM resazurin (Sigma-Aldrich) for 20 min before exposure to the substrates covered with the immobilized proteins.
as §3

S. Typhimurium = test: Specificity control on protein covered gold surfaces (non-host bacteria); assay type: binding, Salmonella enterica subsp. enterica sv. Typhimurium; settings: protein covered gold surface
Excerpt: as §7, §8, §3

B1: Gp10: recombinant His-tagged lysin Gp10 of mycobacteriophage L5 (SEQ ID NO: 3) (protein)
chain: MHHHHHHSSGLVPRGSGMKETAAAKFERQHMDSPDLGTDDDDKAMADIGSEFMTFTVTRERAQWVHDMARARDGLPYAYGGAFTNNPRVSTDCSGLVLQTGAWYGGRTDWVGNRYGSTESFRLDHKIVYDLGFKRMPRGGPAALPIKPVMLVGLQHGGGGVYSHTACTLMTMDHPGGPVKMSDRGVDWESHGNRNGVGVELYEGARAWNDPLFHDFWYLDAVLEDEGDDDELADPVLGKMIREIHACLFNQTASTSDLATPGEGAIWQLHQKIHSIDGMLHPIHAERRARAGDLGELHRIVLAAKGLGVKRDEVTKRVYQSILADIERDNPEVLQRYIAERGGL
modifications: His6 tag
B1 was tested, and the “bacterial capture of non-host bacteria (in words)” value (E. coli) was “no bacterial capture”, the “peptidoglycan binding (in words)” value ([1]; Gp10 purified from the soluble fraction, 0.1 mg/ml Gp10, 0.1 mg/ml peptidoglycan, 30 min, SDS-PAGE of supernatant) was “selectively remove recombinant Gp10 from the solution” and the “peptidoglycan binding (in words)” value ([1]; refolded sample of Gp10 after 8 M urea extraction) was “retained the ability to bind peptidoglycan”. The “bacterial capture of non-host bacteria (in words)” value [2] was “no bacterial capture”, the bacterial capture ([3]; gold surface, 20 μg/ml of RBP, MAP ATCC 19851) was 12.3×10^−3 /μm^2 and the “capture/binding of MAP cells (in words)” value [3] was “able to bind; also recorded: specifically bind”. For the same molecule, the “Capture efficiency of M. smegmatis cells” value [4] was 28.7±1.18×10^−3 cells/μm^2, the bacterial capture [4] was 28.7×10^−3 /μm^2 and the “capture/binding of M. smegmatis cells (in words)” value [4] was “able to bind; also recorded: specifically bind”. The “capture of M. marinum cells (in words)” value (M. marinum cells) was “Neither of the two proteins was able to capture; also recorded: Neither Gp6 nor Gp10 was able to serve as a capturing agent” and the “bacterial capture of non-host bacteria (in words)” value (S. Typhimurium) was “no bacterial capture”.

B2: Gp6: recombinant His-tagged minor tail protein Gp6 of mycobacteriophage L5 (SEQ ID NO: 1) (protein)
chain: MHHHHHHSSGLVPRGSGMKETAAAKFERQHMDSPDLGTDDDDKAMADIGSEFMADLGNPLDLEMLCLVTGRDFRWTIDYPWGPGELFLELETGGEHNALHQVYVTGATGGTYTLNVNGTNTPAIDYNDVSENPQGLAGDIQDALDAAVGAGNAVVHPVSLFPAWTLNFNLNASKPLTEQLVNTINKAANDFFDTFDQLLGVDVEMTVTDTLNFKLKVTSRRSFDEVGVVTFAVDVTSQAVINFFNSVAELTGAVNTVNVDFYWNRTYDIEFTGSLGLQPIPATTADITNLAGTSKAVSVTVVEPGKKRLTIWPFTVNGETATIKVESEEADKIPNRCRWQLVHMPTGEAAGGDAKQLGRVYRQPR
modifications: His6 tag
In the case of B2, the “bacterial capture of non-host bacteria (in words)” value (E. coli) is reported as “no bacterial capture”, the “bacterial capture of non-host bacteria (in words)” value [2] is reported as “no bacterial capture” and the “capture/binding of MAP cells (in words)” value ([3]; listed as Gp 6) is reported as “did not capture any MAP cells”. The “capture/binding of MAP cells (in words)” value ([3]; listed as Gp-6) was “not showing any bacterial capture”, the “Capture efficiency of M. smegmatis cells” value [4] was 31.3±1.5×10^−3 cells/μm^2 and the bacterial capture [4] was 31.3×10^−3 /μm^2. For the same molecule, the “capture/binding of M. smegmatis cells (in words)” value [4] was “M. smegmatis specific; also recorded: bind only M. smegmatis cells”, the “capture of M. marinum cells (in words)” value (M. marinum cells) was “Neither of the two proteins was able to capture; also recorded: Neither Gp6 nor Gp10 was able to serve as a capturing agent” and the “bacterial capture of non-host bacteria (in words)” value (S. Typhimurium) was “no bacterial capture”.
